B1: NLRP1 Gly/N-degron: C-terminal fragment generated by 3C cleavage, which exposes the Gly/N-degron, begins at glycine-131 (protein)
chain: GSERRVLRQLPDTSGRRWREISASLLYQALPSSPDHESPSQESPNAPTSTAVLGSWGSPPQPSLAPREQEAPGTQWPLDETSGIYYTEIREREREKSEKGRPPWAAVVGTPPQAHTSLQPHHHPWEPSVRESLCSTWPWKNEDFNQKFTQLLLLQRPHPRSQDPLVKRSWPDYVEENRGHLIEIRDLFGPGLDTQEPRIVILQGAAGIGKSTLARQVKEAWGRGQLYGDRFQHVFYFSCRELAQSKVVSLAELIGKDGTATPAPIRQILSRPERLLFILDGVDEPGWVLQEPSSELCLHWSQPQPADALLGSLLGKTILPEASFLITARTTALQNLIPSLEQARWVEVLGFSESSRKEYFYRYFTDERQAIRAFRLVKSNKELWALCLVPWVSWLACTCLMQQMKRKEKLTLTSKTTTTLCLHYLAQALQAQPLGPQLRDLCSLAAEGIWQKKTLFSPDDLRKHGLDGAIISTFLKMGILQEHPIPLSYSFIHLCFQEFFAAMSYVLEDEKGRGKHSNCIIDLEKTLEAYGIHGLFGASTTRFLLGLLSDEGEREMENIFHCRLSQGRNLMQWVPSLQLLLQPHSLESLHCLYETRNKTFLTQVMAHFEEMGMCVETDMELLVCTFCIKFSRHVKKLQLIEGRQHRSTWSPTMVVLFRWVPVTDAYWQILFSVLKVTRNLKELDLSGNSLSHSAVKSLCKTLRRPRCLLETLRLAGCGLTAEDCKDLAFGLRANQTLTELDLSFNVLTDAGAKHLCQRLRQPSCKLQRLQLVSCGLTSDCCQDLASVLSASPSLKELDLQQNNLDDVGVRLLCEGLRHPACKLIRLGLDQTTLSDEMRQELRALEQEKPQLLIFSRRKPSVMTPTEGLDTGEMSNSTSSLKRQRLGSERAASHVAQANLKLLDVSKIFPIAEIAEESSPEVVPVELLCVPSPASQGDLHTKPLGTDDDFWGPTGPVATEVVDKEKNLYRVHFPVAGSYRWPNTGLCFVMREAVTVEIEFCVWDQFLGEINPQHSWMVAGPLLDIKAEPGAVEAVHLPHFVALQGGHVDTSLFQMAHFKEEGMLLEKPARVELHHIVLENPSFSPLGVLLKMIHNALRFIPVTSVVLLYHRVHPEEVTFHLYLIPSDCSIRKAIDDLEMKFQFVRIHKPPPLTPLYMGCRYTVSGSGSGMLEILPKELELCYRSPGEDQLFSEFYVGHLGSGIRLQVKDKKDETLVWEALVKPGDLMPATTLIPPARIAVPSPLDAPQLLHFVDQYREQLIARVTSVEVVLDKLHGQVLSQEQYERVLAENTRPSQMRKLFSLSQSWDRKCKDGLYQALKETHPHLIMELWEKGSKKGLLPLSS
B2: E133K: E133K mutation of NLRP1 (residue E3 of the Gly/N-degron) (protein)
chain: GSKRRVLRQLPDTSGRRWREISASLLYQALPSSPDHESPSQESPNAPTSTAVLGSWGSPPQPSLAPREQEAPGTQWPLDETSGIYYTEIREREREKSEKGRPPWAAVVGTPPQAHTSLQPHHHPWEPSVRESLCSTWPWKNEDFNQKFTQLLLLQRPHPRSQDPLVKRSWPDYVEENRGHLIEIRDLFGPGLDTQEPRIVILQGAAGIGKSTLARQVKEAWGRGQLYGDRFQHVFYFSCRELAQSKVVSLAELIGKDGTATPAPIRQILSRPERLLFILDGVDEPGWVLQEPSSELCLHWSQPQPADALLGSLLGKTILPEASFLITARTTALQNLIPSLEQARWVEVLGFSESSRKEYFYRYFTDERQAIRAFRLVKSNKELWALCLVPWVSWLACTCLMQQMKRKEKLTLTSKTTTTLCLHYLAQALQAQPLGPQLRDLCSLAAEGIWQKKTLFSPDDLRKHGLDGAIISTFLKMGILQEHPIPLSYSFIHLCFQEFFAAMSYVLEDEKGRGKHSNCIIDLEKTLEAYGIHGLFGASTTRFLLGLLSDEGEREMENIFHCRLSQGRNLMQWVPSLQLLLQPHSLESLHCLYETRNKTFLTQVMAHFEEMGMCVETDMELLVCTFCIKFSRHVKKLQLIEGRQHRSTWSPTMVVLFRWVPVTDAYWQILFSVLKVTRNLKELDLSGNSLSHSAVKSLCKTLRRPRCLLETLRLAGCGLTAEDCKDLAFGLRANQTLTELDLSFNVLTDAGAKHLCQRLRQPSCKLQRLQLVSCGLTSDCCQDLASVLSASPSLKELDLQQNNLDDVGVRLLCEGLRHPACKLIRLGLDQTTLSDEMRQELRALEQEKPQLLIFSRRKPSVMTPTEGLDTGEMSNSTSSLKRQRLGSERAASHVAQANLKLLDVSKIFPIAEIAEESSPEVVPVELLCVPSPASQGDLHTKPLGTDDDFWGPTGPVATEVVDKEKNLYRVHFPVAGSYRWPNTGLCFVMREAVTVEIEFCVWDQFLGEINPQHSWMVAGPLLDIKAEPGAVEAVHLPHFVALQGGHVDTSLFQMAHFKEEGMLLEKPARVELHHIVLENPSFSPLGVLLKMIHNALRFIPVTSVVLLYHRVHPEEVTFHLYLIPSDCSIRKAIDDLEMKFQFVRIHKPPPLTPLYMGCRYTVSGSGSGMLEILPKELELCYRSPGEDQLFSEFYVGHLGSGIRLQVKDKKDETLVWEALVKPGDLMPATTLIPPARIAVPSPLDAPQLLHFVDQYREQLIARVTSVEVVLDKLHGQVLSQEQYERVLAENTRPSQMRKLFSLSQSWDRKCKDGLYQALKETHPHLIMELWEKGSKKGLLPLSS

What was measured:
[1] = molecular target: ZYG11B-EloBC (Homo sapiens, UniProt Q9C0D3); experiment: MBP pull-down with substrate receptor module ZYG11B-EloBC; format: binding; settings: R466A mutation of ZYG11B, recombinant purified proteins, Figure S9A
Sequence of ZYG11B-EloBC (Q9C0D3 whole entry, the tested form may be a part): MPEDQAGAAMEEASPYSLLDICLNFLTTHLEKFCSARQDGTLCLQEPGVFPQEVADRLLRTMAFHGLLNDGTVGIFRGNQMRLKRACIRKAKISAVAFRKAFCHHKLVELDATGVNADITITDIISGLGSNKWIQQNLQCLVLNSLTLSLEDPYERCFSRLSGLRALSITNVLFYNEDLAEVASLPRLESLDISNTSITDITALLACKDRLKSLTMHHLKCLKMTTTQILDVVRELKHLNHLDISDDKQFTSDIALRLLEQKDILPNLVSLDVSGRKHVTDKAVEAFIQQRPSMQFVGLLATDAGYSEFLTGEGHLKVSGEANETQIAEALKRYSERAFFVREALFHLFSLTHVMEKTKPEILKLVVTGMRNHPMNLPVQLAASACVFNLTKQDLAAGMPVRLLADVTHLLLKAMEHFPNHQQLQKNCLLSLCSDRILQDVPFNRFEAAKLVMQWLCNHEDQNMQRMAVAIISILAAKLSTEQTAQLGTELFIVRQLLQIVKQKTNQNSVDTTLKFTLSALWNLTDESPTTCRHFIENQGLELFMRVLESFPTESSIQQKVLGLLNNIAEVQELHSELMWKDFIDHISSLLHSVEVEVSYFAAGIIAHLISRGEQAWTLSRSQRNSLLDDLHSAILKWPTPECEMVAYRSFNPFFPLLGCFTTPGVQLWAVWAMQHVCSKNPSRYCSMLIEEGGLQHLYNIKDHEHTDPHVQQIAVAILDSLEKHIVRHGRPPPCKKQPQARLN
Sequence of ZYG11B-EloBC (Q15370 whole entry partner, the tested form may be a part): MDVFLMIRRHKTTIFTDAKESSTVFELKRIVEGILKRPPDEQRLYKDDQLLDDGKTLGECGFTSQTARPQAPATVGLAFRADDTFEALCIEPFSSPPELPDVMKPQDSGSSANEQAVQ
Sequence of ZYG11B-EloBC (Q15369 17-112 partner limits assumed): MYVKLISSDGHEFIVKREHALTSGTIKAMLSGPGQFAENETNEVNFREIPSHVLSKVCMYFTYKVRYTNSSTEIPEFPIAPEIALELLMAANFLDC
Procedure: Peptides corresponding to […] and […] were appended to the N terminus of maltose-binding protein (MBP) and cloned into pET-28a containing an N-terminal His6 tag followed by a TEV protease cleavage site. Fusion proteins were purified by Ni-NTA chromatography, digested with TEV protease, and passed over Ni-NTA resin again to remove TEV and the cleaved His6 tag. Final purification was performed by size-exclusion chromatography. The resulting proteins contained MBP fused to N-terminal Gly/N-degron overhangs. For pulldown experiments, approximately 100 μg MBP fusion protein was immobilized on 50 μL amylose resin and incubated with prey protein at a 1:1 molar ratio for 1 h at 4°C. Resin was washed three times, and bound proteins were eluted in sizing buffer supplemented with 20 mM maltose. Samples were analyzed by SDS-PAGE and Coomassie staining. Pulldown efficiency was quantified as the ratio of MBP–NLRP1 degron signal to ZYG11B signal in the same gel lane. […]
incubation of full-length Cyclin B1 without Gly/N-degron with ZYG11B–EloBC (top). SDS–PAGE analysis of the indicated fractions from the Superose 6 column (dashed lines) confirms complex formation (bottom) C, fluorescence anisotropy binding of ZYG11B-EloBC to indicated fluorescein-labeled peptides (left) and fitted equilibrium dissociation constants (right). […]

[2] = tested on: NLRP1 inflammasome; format: cell-based, human

| Molecule | binding to ZYG11B-EloBC R466A mutant versus WT [1] | inflammasome activation of NLRP1 mutant upon HRV 3Cpro [2] |
| --- | --- | --- |
| B1 | relatively strong reduction | – |
| B2 | – | reduced inflammasome activation |
